Measured values reported in patent US20240124586A1 (WUXI BIOLOGICS IRELAND, published 2024).
Read-outs that look alike come from different tables or passages of the source.

Experiments:
[1] = target: T1, human PD-1 on engineered CHO-S cells (W305-CHO-S.hPro1.C6) (human, UniProt Q15116 25-288); experiment: FACS competition: antibody titrated against human PD-L1 binding to PD-1; falling curve, half-maximal value labelled EC50 on the sheet
T1 construct: whole, on cells; also called human PD-1 engineered cells; PD-1+ cells
Experimental: (§1) In order to test whether the bispecific antibodies could block hPD-L1 binding to hPD-1 protein, a competitive FACS was conducted. […] Plates were incubated at 4° C. for 1 hour. After wash, the binding of W315-hPro1.ECD.mFc to cell expressive human PD-1 was detected by FITC-labeled goat anti-mouse antibody (abcam 98716 1:125). The competition binding of antibodies to the cells was tested by flow cytometry and the mean fluorescence intensity (MFI) was analyzed by FlowJo.

[2] = target: T1, human PD-1 on engineered CHO-S cells …; experiment: FACS on human PD-1 engineered cells
Experimental: (§2) Engineered human PD-1 expressing cells W305-CHO-S.hPro1.C6 were seeded at 1×10⁵ cells/well in U-bottom 96-well plates (COSTAR 3799). Antibodies with 3.16-fold titration in 1% BSA DPBS from 200 nM to 0.002 nM were added to the cells. The plates were incubated at 4° C. for 1 hour. After wash, […] 1:125 diluted PE-labeled goat anti-human antibody (Jackson 109-115-098) was added to each well and the plates were incubated at 4° C. for 1 hour. The binding of the antibodies onto the cells was tested by flow cytometry and the mean fluorescence intensity (MFI) was analyzed by FlowJo.

[3] = target: T1, human PD-1 on engineered CHO-S cells …; experiment: FACS competition: antibody titrated against human PD-L1 binding to PD-1; falling curve, half-maximal value labelled EC50 on the sheet; remark: listed apart in the source
Experimental: as §1

[4] = target: T2, human PD-1 ECD mouse Fc fusion (W305-hPro1.ECD.mFc) (human, UniProt Q15116 25-170); experiment: dual-binding ELISA: human PD-1 ECD coated, antibody titrated, bound antibody detected with biotinylated human CTLA-4 ECD and streptavidin-HRP
T2 construct: extracellular domain; In-house protein; also called hPD-1-ECD; human PD-1 coated on the plate
Experimental: In order to test whether the bispecific antibodies could bind to both hPD-1 and hCTLA-4, an ELISA assay was developed as below. A 96-well ELISA plate (Nunc MaxiSorp, ThermoFisher) was coated overnight at 4° C. with 0.5 μg/ml antigen-1 (hPD-1-ECD, W305-hPro1.ECD.mFc) in carbonate-bicarbonate buffer. After a 1 hour blocking step with 2% (w/v) bovine serum albumin (Pierce) dissolved in PBS, serial dilutions of the different PD-1×CTLA-4 bispecific antibodies in PBS containing 2% BSA PBS were incubated on the plates for 1 hour at room temperature. Following the incubation, plates were washed three times with 300 μL per well of PBS containing 0.5% (v/v) Tween 20. […] After washing the plates three times, Streptavidin-HRP (Lifetechnologies, #SNN1004) (1:20000 diluted) was added and incubated on the plates for 1 hour at room temperature. After washing six times with […] per well of PBS containing 0.5% (v/v) Tween 20, 100 μL tetramethylbenzidine (TMB) substrate was added for the detection per well. The reaction was stopped after approximately 5 minutes through the addition of […] per well of 2 M HCl. The absorbance of the wells was measured at 450 nm with a multiwall plate reader (SpectraMax® M5e).

[5] = target: T1, human PD-1 on engineered CHO-S cells …; experiment: FACS on human PD-1 engineered cells; remark: listed apart in the source
Experimental: as §2

[6] = target: T3, human CTLA-4 on engineered 293F cells (W316-293F.hPro1.FL) (human, UniProt P16410 36-223); experiment: FACS binding to human CTLA-4 engineered cells
T3 construct: whole, on cells; also called human CTLA-4 engineered cells; CTLA-4+ cells
Experimental: 3.16-fold titrated Abs with 1% BSA DPBS from 200 nM to 0.002 nM were added to the cells. Plates were incubated at 4° C. for 1 hour. After wash, […] 1:150 diluted PE-labeled goat anti-human antibody (Jackson 109-115-098) was added to each well and the plates were incubated at 4° C. for 1 hour. The binding of the antibodies onto the cells was tested by flow cytometry and the mean fluorescence intensity (MFI) was analyzed by FlowJo.

[7] = target: T1, human PD-1 on engineered CHO-S cells …; experiment: FACS binding to human PD-1 engineered cells
Experimental: as §2

T1 sequence (Q15116 25-288, stated change not applied): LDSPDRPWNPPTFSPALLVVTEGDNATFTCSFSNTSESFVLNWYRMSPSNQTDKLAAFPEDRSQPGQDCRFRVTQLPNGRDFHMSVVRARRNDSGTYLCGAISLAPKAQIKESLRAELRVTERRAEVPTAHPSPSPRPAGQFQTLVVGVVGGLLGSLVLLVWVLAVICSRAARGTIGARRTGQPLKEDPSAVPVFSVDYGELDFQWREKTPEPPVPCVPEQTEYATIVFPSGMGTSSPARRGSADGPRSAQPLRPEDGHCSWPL
T3 sequence (P16410 36-223, change not shown): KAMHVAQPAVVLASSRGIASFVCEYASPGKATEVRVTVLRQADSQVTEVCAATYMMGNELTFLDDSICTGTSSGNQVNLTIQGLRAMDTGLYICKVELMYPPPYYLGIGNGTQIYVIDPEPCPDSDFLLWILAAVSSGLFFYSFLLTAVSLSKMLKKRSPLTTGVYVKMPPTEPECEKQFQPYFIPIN
T2 sequence (Q15116 25-170): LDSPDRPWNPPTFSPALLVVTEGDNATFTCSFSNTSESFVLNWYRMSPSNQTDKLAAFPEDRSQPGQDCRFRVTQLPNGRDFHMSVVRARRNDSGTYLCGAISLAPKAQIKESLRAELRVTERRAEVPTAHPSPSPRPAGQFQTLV

Row | Binder | IC50 [1] | EC50 [2] | IC50 [3] | EC50 [4] | EC50 [5] | EC50 [6] | EC50 [7]
1 | U6T1.G19R.IgG4, bispecific anti-PD-1 x CTLA-4 (bispecific antibody, Symmetric tetravalent format G19R; also called U6T1 in G19R format) heavy: EVQLLESGGGLVQPGGSLRLSCAASGFTFSSHAMSWVRQAPGKGLEWVSTITGGGGSIYYADSVKGRFTISRDNSKNTLYLQMNSLRAEDTAVYYCAKNRAGEGYFDYWGQGTLVTVLEDLKNVFPPEVAVFEPSEAEISHTQKATLVCLATGFYPDHVELSWWVNGKEVHSGVCTDPQPLKEQPALQDSRYALSSRLRVSATFWQNPRNHFRCQVQFYGLSENDEWTQDRAKPVTQIVSAEAWGRYGPPCPPCPAPEFLGGPSVFLFPPKPKDTLMISRTPEVTCVVVDVSQEDPEVQFNWYVDGVEVHNAKTKPREEQFNSTYRVVSVLTVLHQDWLNGKEYKCKVSNKGLPSSIEKTISKAKGQPREPQVYTLPPSQEEMTKNQVSLTCLVKGFYPSDIAVEWESNGQPENNYKTTPPVLDSDGSFFLYSRLTVDKSRWQEGNVFSCSVMHEALHNHYTQKSLSLSLGGGGGSGGGGSGGGGSGGGGSQVQLVESGGGVVQPGRSLRLSCAASGFTFSSYTMHWVRQAPGKGLEWVTFISYDGNNKYYADSVKGRFTISRDNSKNTLYLQMNSLRAEDTAIYYCARTGWLGPFDYWGQGTLVTVSSASTKGPSVFPLAPCSRSTSESTAALGCLVKDYFPEPVTVSWNSGALTSGVHTFPAVLQSSGLYSLSSVVTVPSSSLGTKTYTCNVDHKPSNTKVDKRV light 1: SYELTQPLSVSVALGQTARITCGGDNIGNKDVHWYQQKPGQAPVLVIYRDSNRPSGIPEGFSGSNSGNTATLTISRAQAGDEADYYCQVWDSIWVFGGGTKLTVLPDIQNPDPAVYQLRDSKSSDKSVCLFTDFDSQTQVSQSKDSDVYITDKCVLDMRSMDFKSNSAVAWSQKSDFACANAFQNSIIPEDTFFPSPESS light 2: not shown | 1.87 nM | 1.74 nM |  |  |  |  | 
2 | U6T1.G25.IgG4, bispecific anti-PD-1 x CTLA-4 (bispecific antibody, Symmetric tetravalent format G25; also called U6T1 in G25 format) heavy: not shown light 1: SYELTQPLSVSVALGQTARITCGGDNIGNKDVHWYQQKPGQAPVLVIYRDSNRPSGIPEGFSGSNSGNTATLTISRAQAGDEADYYCQVWDSIWVFGGGTKLTVLPDIQNPDPAVYQLRDSKSSDKSVCLFTDFDSQTQVSQSKDSDVYITDKCVLDMRSMDFKSNSAVAWSQKSDFACANAFQNSIIPEDTFFPSPESS light 2: not shown | 1.96 nM | 1.65 nM |  |  |  |  | 
3 | U6T1.G25R.IgG4, bispecific anti-PD-1 x CTLA-4 (as listed in Example 15) (bispecific antibody, kept apart; also called U6T1 in G25R format) heavy: EVQLLESGGGLVQPGGSLRLSCAASGFTFSSHAMSWVRQAPGKGLEWVSTITGGGGSIYYADSVKGRFTISRDNSKNTLYLQMNSLRAEDTAVYYCAKNRAGEGYFDYWGQGTLVTVSSASTKGPSVFPLAPCSRSTSESTAALGCLVKDYFPEPVTVSWNSGALTSGVHTFPAVLQSSGLYSLSSVVTVPSSSLGTKTYTCNVDHKPSNTKVDKRVGGGGSGGGGSQVQLVESGGGVVQPGRSLRLSCAASGFTFSSYTMHWVRQAPGKGLEWVTFISYDGNNKYYADSVKGRFTISRDNSKNTLYLQMNSLRAEDTAIYYCARTGWLGPFDYWGQGTLVTVLEDLKNVFPPEVAVFEPSEAEISHTQKATLVCLATGFYPDHVELSWWVNGKEVHSGVCTDPQPLKEQPALQDSRYALSSRLRVSATFWQNPRNHFRCQVQFYGLSENDEWTQDRAKPVTQIVSAEAWGRYGPPCPPCPAPEFLGGPSVFLFPPKPKDTLMISRTPEVTCVVVDVSQEDPEVQFNWYVDGVEVHNAKTKPREEQFNSTYRVVSVLTVLHQDWLNGKEYKCKVSNKGLPSSIEKTISKAKGQPREPQVYTLPPSQEEMTKNQVSLTCLVKGFYPSDIAVEWESNGQPENNYKTTPPVLDSDGSFFLYSRLTVDKSRWQEGNVFSCSVMHEALHNHYTQKSLSLSLGK light 1: SYELTQPLSVSVALGQTARITCGGDNIGNKDVHWYQQKPGQAPVLVIYRDSNRPSGIPEGFSGSNSGNTATLTISRAQAGDEADYYCQVWDSIWVFGGGTKLTVLGQPKAAPSVTLFPPSSEELQANKATLVCLISDFYPGAVTVAWKADSSPVKAGVETTTPSKQSNNKYAASSYLSLTPEQWKSHKSYSCQVTHEGSTVEKTVAPTECS light 2: not shown | 1.92 nM | 1.81 nM | 1.67 nM | 0.107 nM | 1.42 nM |  | 
4 | T4U6.G26R.IgG4, bispecific anti-CTLA-4 x PD-1 (bispecific antibody, Light-heavy crossed chimeric Fab; first chain is T4-HC fused to U6-LC; T4 = WBP3162-1.146.19-z12; also called T4U6 antibody pair in G26R format) QVQLQESGPGLVKPSETLSLTCSVTYHTITSGYDWTWIRKPPGKGMEWIGYISYSGNTNYNPSLKSRVTISRDTSKNQFFLKLSSVTAADTAVYYCASMMVPHYYVMDAWGQGTLVTVSSASTKGPSVFPLAPCSRSTSESTAALGCLVKDYFPEPVTVSWNSGALTSGVHTFPAVLQSSGLYSLSSVVTVPSSSLGTKTYTCNVDHKPSNTKVDKRVGGGGSGGGGSSYELTQPLSVSVALGQTARITCGGDNIGNKDVHWYQQKPGQAPVLVIYRDSNRPSGIPEGFSGSNSGNTATLTISRAQAGDEADYYCQVWDSIWVFGGGTKLTVLPDIQNPDPAVYQLRDSKSSDKSVCLFTDFDSQTQVSQSKDSDVYITDKCVLDMRSMDFKSNSAVAWSQKSDFACANAFQNSIIPEDTFFPSPESS heavy: EVQLLESGGGLVQPGGSLRLSCAASGFTFSSHAMSWVRQAPGKGLEWVSTITGGGGSIYYADSVKGRFTISRDNSKNTLYLQMNSLRAEDTAVYYCAKNRAGEGYFDYWGQGTLVTVLEDLKNVFPPEVAVFEPSEAEISHTQKATLVCLATGFYPDHVELSWWVNGKEVHSGVCTDPQPLKEQPALQDSRYALSSRLRVSATFWQNPRNHFRCQVQFYGLSENDEWTQDRAKPVTQIVSAEAWGRYGPPCPPCPAPEFLGGPSVFLFPPKPKDTLMISRTPEVTCVVVDVSQEDPEVQFNWYVDGVEVHNAKTKPREEQFNSTYRVVSVLTVLHQDWLNGKEYKCKVSNKGLPSSIEKTISKAKGQPREPQVYTLPPSQEEMTKNQVSLTCLVKGFYPSDIAVEWESNGQPENNYKTTPPVLDSDGSFFLYSRLTVDKSRWQEGNVFSCSVMHEALHNHYTQKSLSLSLG light: DIVMTQTPLSLSVTPGQPASISCRSSQSLLNSDGNTYLYWYLQKPGQSPQLLIYLVSKLGSGVPNRFSGSGSGTDFTLKISRVEAEDVGVYYCVQGTHDPWTFGGGTKVEIKRTVAAPSVFIFPPSDEQLKSGTASVVCLLNNFYPREAKVQWKVDNALQSGNSQESVTEQDSKDSTYSLSSTLTLSKADYEKHKVYACEVTHQGLSSPVTKSFNRGEC |  |  |  |  |  | 5.91 nM | 4.78 nM
